Assay results taken from paper PMC11804793, “Characterization of a C-methyltransferase from Streptomyces griseoviridis – crystal structure, mechanism, and substrate scope” (Chemical Science, 2025).

What was measured:
SgMT = target: T1, SgMT (Streptomyces griseoviridis, UniProt A0A918GRY4); assay: X-ray crystallography, […] Å; type: binding; conditions: non-methylated form of the cofactor, co-crystallised; cWW in the sample but not seen in density
T1 construct: gene GCM10010238_52040; C-terminally His-tagged for kinetics, produced in E. coli BL21 (DE3), Ni-NTA purified; dimer; residues before T7 disordered in crystal
T1 sequence (A0A918GRY4 1-269): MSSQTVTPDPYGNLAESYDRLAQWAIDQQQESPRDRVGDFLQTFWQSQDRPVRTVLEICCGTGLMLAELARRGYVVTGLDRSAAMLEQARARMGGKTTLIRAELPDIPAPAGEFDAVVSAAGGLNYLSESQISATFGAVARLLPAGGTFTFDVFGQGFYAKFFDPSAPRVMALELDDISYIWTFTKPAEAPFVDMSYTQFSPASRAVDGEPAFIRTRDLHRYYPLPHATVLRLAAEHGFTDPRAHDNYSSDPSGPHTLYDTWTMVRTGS

[1] = target: SAM-dependent indole C3-methyltransferase SgMT from Streptomyces griseoviridis (Streptomyces griseoviridis); assay: crystal structure; SgMT crystallised in the presence of SAH (cWW included in the sample but not seen); space group P4(1)2(1)2, three protein chains per asymmetric unit; dmin 1.47 Å
[2] = substrate: O=C1N[C@@H](Cc2c[nH]c3ccccc23)C(=O)N[C@H]1Cc1c[nH]c2ccccc12; assay: MTase Glo luminescence assay (SAH formation), Michaelis-Menten; type: biochemical, Streptomyces griseoviridis; conditions: co-substrate SAM; C-terminally His-tagged enzyme

Nc1ncnc2c1ncn2[C@@H]1O[C@H](CSCC[C@H](N)C(=O)O)[C@@H](O)[C@H]1O [SAH]
X-ray crystallography, 1.47 Å (SgMT): we crystallised the protein in the presence of the cofactor (using the non-methylated form, SAH)

SAM-dependent indole C3-methyltransferase SgMT from Streptomyces griseoviridis (enzyme)
stoichiometry N [1]: 2

B1: SgMT (Streptomyces griseoviridis) (protein)
chain: MSSQTVTPDPYGNLAESYDRLAQWAIDQQQESPRDRVGDFLQTFWQSQDRPVRTVLEICCGTGLMLAELARRGYVVTGLDRSAAMLEQARARMGGKTTLIRAELPDIPAPAGEFDAVVSAAGGLNYLSESQISATFGAVARLLPAGGTFTFDVFGQGFYAKFFDPSAPRVMALELDDISYIWTFTKPAEAPFVDMSYTQFSPASRAVDGEPAFIRTRDLHRYYPLPHATVLRLAAEHGFTDPRAHDNYSSDPSGPHTLYDTWTMVRTGS
notes: C-terminally His-tagged for kinetics, produced in E. coli BL21 (DE3), Ni-NTA purified; dimer; residues before T7 disordered in crystal
Km [2]: 10.53 ± 2.01 µM | kcat [2]: 0.0025 s⁻¹
